# Results published in the supplement of paper PMC11246515.
# ± gives the standard deviation of the averaged measurements.
# Experiment: total protein half-life in vivo (active degradation + dilution); higher = more stable protein
# [1] = E. coli NCM3722 delta-clpP delta-lon delta-hslV, growth: N-lim chemostat, doubling time 6 h
# [2] = E. coli NCM3722 delta-clpP, growth: N-lim chemostat, doubling time 6 h
# [3] = E. coli NCM3722 delta-hslV, growth: N-lim chemostat, doubling time 6 h
# [4] = E. coli NCM3722 delta-lon, growth: N-lim chemostat, doubling time 6 h
# [5] = E. coli NCM3722 delta-smpB, growth: N-lim chemostat, doubling time 6 h
# [6] = wild type E. coli NCM3722, growth: C-lim chemostat, doubling time 3 h
# [7] = wild type E. coli NCM3722, growth: C-lim chemostat, doubling time 6 h
# [8] = wild type E. coli NCM3722, growth: C-lim chemostat, doubling time 12 h
# [9] = wild type E. coli NCM3722, growth: N-lim chemostat, doubling time 6 h
# [10] = wild type E. coli NCM3722, growth: N-lim chemostat, doubling time 12 h
# [11] = wild type E. coli NCM3722, growth: P-lim chemostat, doubling time 6 h
# [12] = wild type E. coli NCM3722, growth: P-lim chemostat, doubling time 12 h
Sequence,total protein half-life in vivo [1],total protein half-life in vivo [2],total protein half-life in vivo [3],total protein half-life in vivo [4],total protein half-life in vivo [5],total protein half-life in vivo [6],total protein half-life in vivo [7],total protein half-life in vivo [8],total protein half-life in vivo [9],total protein half-life in vivo [10],total protein half-life in vivo [11],total protein half-life in vivo [12]
MAKVSLEKDKIKFLLVEGVHQKALESLRAAGYTNIEFHKGALDDEQLKESIRDAHFIGLRSRTHLTEDVINAAEKLVAIGCFCIGTNQVDLDAAAKRGIPVFNAPFSNTRSVAELVIGELLLLLRGVPEANAKAHRGVWNKLAAGSFEARGKKLGIIGYGHIGTQLGILAESLGMYVYFYDIENKLPLGNATQVQHLSDLLNMSDVVSLHVPENPSTKNMMGAKEISLMKPGSLLINASRGTVVDIPALCDALASKHLAGAAIDVFPTEPATNSDPFTSPLCEFDNVLLTPHIGGSTQEAQENIGLEVAGKLIKYSDNGSTLSAVNFPEVSLPLHGGRRLMHIHENRPGVLTALNKIFAEQGVNIAAQYLQTSAQMGYVVIDIEADEDVAEKALQAMKAIPGTIRARLLY [P0A9T0],5.06 ± 0.26 h,4.512 ± 0.0057 h,3.75 ± 0.028 h,4.11 ± 0.16 h,4.09 ± 0.058 h,3.09 ± 0.13 h,5.65 ± 0.34 h,11.5 ± 1.3 h,3.94 ± 0.12 h,5.84 ± 0.19 h,6.02 ± 0.23 h,11.8 ± 0.39 h
MTIAIVIGTHGWAAEQLLKTAEMLLGEQENVGWIDFVPGENAETLIEKYNAQLAKLDTTKGVLFLVDTWGGSPFNAASRIVVDKEHYEVIAGVNIPMLVETLMARDDDPSFDELVALAVETGREGVKALKAKPVEKAAPAPAAAAPKAAPTPAKPMGPNDYMVIGLARIDDRLIHGQVATRWTKETNVSRIIVVSDEVAADTVRKTLLTQVAPPGVTAHVVDVAKMIRVYNNPKYAGERVMLLFTNPTDVERLVEGGVKITSVNVGGMAFRQGKTQVNNAVSVDEKDIEAFKKLNARGIELEVRKVSTDPKLKMMDLISKIDK,6.3 ± 0.43 h,6.46 ± 1.2 h,–,6.12 ± 0.73 h,5.94 ± 0.051 h,3.14 ± 0.049 h,6.91 ± 0.14 h,13 ± 0.89 h,5.95 ± 0.48 h,12 ± 0.24 h,6.111 ± 0.044 h,14.3 ± 0.52 h
MKHTVEVMIPEAEIKARIAELGRQITERYKDSGSDMVLVGLLRGSFMFMADLCREVQVSHEVDFMTASSYGSGMSTTRDVKILKDLDEDIRGKDVLIVEDIIDSGNTLSKVREILSLREPKSLAICTLLDKPSRREVNVPVEFIGFSIPDEFVVGYGIDYAQRYRHLPYIGKVILLDE [P0A9M2],4.48 ± 0.22 h,4.53 ± 0.57 h,4.14 ± 0.16 h,5.16 ± 0.72 h,4.08 ± 0.22 h,2.88 ± 0.16 h,4.78 ± 1.6 h,9.38 ± 0.47 h,4.126 ± 0.012 h,7.29 ± 0.7 h,5.5 ± 0.17 h,12.9 ± 1.8 h
MKVLVTGATSGLGRNAVEFLCQKGISVRATGRNEAMGKLLEKMGAEFVPADLTELVSSQAKVMLAGIDTLWHCSSFTSPWGTQQAFDLANVRATRRLGEWAVAWGVRNFIHISSPSLYFDYHHHRDIKEDFRPHRFANEFARSKAASEEVINMLSQANPQTRFTILRPQSLFGPHDKVFIPRLAHMMHHYGSILLPHGGSALVDMTYYENAVHAMWLASQEACDKLPSGRVYNITNGEHRTLRSIVQKLIDELNIDCRIRSVPYPMLDMIARSMERLGRKSAKEPPLTHYGVSKLNFDFTLDITRAQEELGYQPVITLDEGIEKTAAWLRDHGKLPR,6.23 ± 0.075 h,–,6.37 ± 0.24 h,5.88 ± 0.54 h,5.48 ± 0.29 h,2.62 ± 0.47 h,–,9.95 ± 0.97 h,6.14 ± 0.16 h,12.6 ± 0.48 h,5.6 ± 0.61 h,9.9 ± 0.57 h
MSKLDTFIQHAVNAVPVSGTSLISSLYGDSLSHRGGEIWLGSLAALLEGLGFGERFVRTALFRLNKEGWLDVSRIGRRSFYSLSDKGLRLTRRAESKIYRAEQPAWDGKWLLLLSEGLDKSTLADVKKQLIWQGFGALAPSLMASPSQKLADVQTLLHEAGVADNVICFEAQIPLALSRAALRARVEECWHLTEQNAMYETFIQSFRPLVPLLKEAADELTPERAFHIQLLLIHFYRRVVLKDPLLPEELLPAHWAGHTARQLCINIYQRVAPAALAFVSEKGETSVGELPAPGSLYFQRFGGLNIEQEALCQFIR,–,–,4.03 ± 0.075 h,4.2 ± 0.044 h,4.07 ± 0.076 h,2.77 ± 0.17 h,5.07 ± 0.31 h,8.39 ± 0.13 h,4.07 ± 0.22 h,6.84 ± 0.13 h,4.82 ± 0.088 h,8.96 ± 0.47 h
MEALGMIETRGLVALIEASDAMVKAARVKLVGVKQIGGGLCTAMVRGDVAACKAATDAGAAAAQRIGELVSVHVIPRPHGDLEEVFPIGLKGDSSNL [P0ABF4],4.35 ± 0.68 h,7.77 h,4.24 ± 0.36 h,4.82 ± 0.61 h,4.98 ± 0.22 h,2.59 ± 0.7 h,5.83 ± 0.41 h,11.5 ± 1.5 h,4.8 ± 0.3 h,7.48 ± 0.57 h,5.28 ± 0.062 h,12.1 ± 1.1 h
MTKYALVGDVGGTNARLALCDIASGEISQAKTYSGLDYPSLEAVIRVYLEEHKVEVKDGCIAIACPITGDWVAMTNHTWAFSIAEMKKNLGFSHLEIINDFTAVSMAIPMLKKEHLIQFGGAEPVEGKPIAVYGAGTGLGVAHLVHVDKRWVSLPGEGGHVDFAPNSEEEAIILEILRAEIGHVSAERVLSGPGLVNLYRAIVKADNRLPENLKPKDITERALADSCTDCRRALSLFCVIMGRFGGNLALNLGTFGGVFIAGGIVPRFLEFFKASGFRAAFEDKGRFKEYVHDIPVYLIVHDNPGLLGSGAHLRQTLGHIL [P0A6V8],5.167 ± 0.05 h,5.45 ± 0.21 h,4.8 ± 0.84 h,5.7 ± 0.3 h,5.16 ± 0.58 h,2.78 ± 0.35 h,6.3 ± 0.76 h,–,5 ± 1.4 h,9.21 ± 0.77 h,–,15.2 ± 1.1 h
